Source: patent US20250257126A1 (CAMBRIDGE ENTERPRISE, published 2025)

T1: human LGR5-eGFP transgene (human, UniProt O75473 22-907)
T1 construct: Tested on live or fixed cells and as cell lysates on western blots; also called hLGR5-eGFP; LGR5-GFP
T1 sequence: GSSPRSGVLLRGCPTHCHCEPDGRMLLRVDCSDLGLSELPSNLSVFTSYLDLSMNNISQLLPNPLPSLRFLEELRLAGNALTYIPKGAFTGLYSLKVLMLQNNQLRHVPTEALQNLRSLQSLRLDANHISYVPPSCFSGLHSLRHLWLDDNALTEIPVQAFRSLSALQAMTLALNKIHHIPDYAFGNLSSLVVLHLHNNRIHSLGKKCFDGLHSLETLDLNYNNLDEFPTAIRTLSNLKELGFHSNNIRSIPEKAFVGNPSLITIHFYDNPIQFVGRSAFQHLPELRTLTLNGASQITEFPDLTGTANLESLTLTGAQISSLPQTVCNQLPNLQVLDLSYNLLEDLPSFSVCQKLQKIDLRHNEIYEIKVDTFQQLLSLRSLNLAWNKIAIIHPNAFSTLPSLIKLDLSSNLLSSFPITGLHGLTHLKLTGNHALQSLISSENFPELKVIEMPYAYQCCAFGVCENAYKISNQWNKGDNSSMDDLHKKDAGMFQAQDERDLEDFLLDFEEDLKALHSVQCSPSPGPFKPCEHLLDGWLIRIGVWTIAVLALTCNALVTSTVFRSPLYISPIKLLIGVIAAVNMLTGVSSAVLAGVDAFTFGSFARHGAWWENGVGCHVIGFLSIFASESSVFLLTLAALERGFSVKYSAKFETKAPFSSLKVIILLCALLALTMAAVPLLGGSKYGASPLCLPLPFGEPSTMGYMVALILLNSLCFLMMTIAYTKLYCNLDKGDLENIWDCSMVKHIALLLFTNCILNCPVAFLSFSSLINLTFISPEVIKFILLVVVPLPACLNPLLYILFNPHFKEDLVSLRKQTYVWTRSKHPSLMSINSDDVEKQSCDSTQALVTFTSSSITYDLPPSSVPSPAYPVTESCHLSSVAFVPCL

T2: murine LGR5 transgene (mouse, UniProt Q9Z1P4 22-907)
T2 construct: whole, on cells; Overexpressed in HEK293T cells with N-terminal HA tag, V2 receptor tail and eGFP; also tested as lysate; also called mLGR5; mLGR5-eGFP
T2 sequence (looked up): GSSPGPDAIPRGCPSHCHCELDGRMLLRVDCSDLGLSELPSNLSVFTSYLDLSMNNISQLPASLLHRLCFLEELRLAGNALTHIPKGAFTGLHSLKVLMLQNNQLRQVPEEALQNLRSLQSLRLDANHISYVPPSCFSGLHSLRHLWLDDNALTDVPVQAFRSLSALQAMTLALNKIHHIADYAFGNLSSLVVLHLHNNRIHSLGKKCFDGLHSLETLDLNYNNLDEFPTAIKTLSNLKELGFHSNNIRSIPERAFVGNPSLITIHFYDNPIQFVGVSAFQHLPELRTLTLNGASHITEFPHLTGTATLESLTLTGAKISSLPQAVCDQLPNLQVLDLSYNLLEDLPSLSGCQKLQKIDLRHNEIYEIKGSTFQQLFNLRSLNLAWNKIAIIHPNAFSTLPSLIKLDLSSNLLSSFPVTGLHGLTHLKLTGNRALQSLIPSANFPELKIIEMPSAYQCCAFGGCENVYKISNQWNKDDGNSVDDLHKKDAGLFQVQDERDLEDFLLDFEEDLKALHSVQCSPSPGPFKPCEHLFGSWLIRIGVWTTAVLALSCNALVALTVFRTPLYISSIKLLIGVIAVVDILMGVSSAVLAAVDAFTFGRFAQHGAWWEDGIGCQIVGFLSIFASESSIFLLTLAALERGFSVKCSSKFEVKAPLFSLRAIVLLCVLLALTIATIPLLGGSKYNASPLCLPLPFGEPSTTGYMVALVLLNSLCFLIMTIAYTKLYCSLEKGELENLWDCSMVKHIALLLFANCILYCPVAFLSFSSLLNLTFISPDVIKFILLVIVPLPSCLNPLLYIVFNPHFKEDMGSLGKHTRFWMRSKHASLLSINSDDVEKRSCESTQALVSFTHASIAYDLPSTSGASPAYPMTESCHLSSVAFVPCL

T3: human LGR6 transgene (human, UniProt Q9HBX8 25-967)
T3 construct: whole, on cells; Overexpressed in HEK293T cells with N-terminal HA tag, V2 receptor tail and eGFP; also tested as lysate; also called hLGR6; LGR6-eGFP
T3 sequence (looked up): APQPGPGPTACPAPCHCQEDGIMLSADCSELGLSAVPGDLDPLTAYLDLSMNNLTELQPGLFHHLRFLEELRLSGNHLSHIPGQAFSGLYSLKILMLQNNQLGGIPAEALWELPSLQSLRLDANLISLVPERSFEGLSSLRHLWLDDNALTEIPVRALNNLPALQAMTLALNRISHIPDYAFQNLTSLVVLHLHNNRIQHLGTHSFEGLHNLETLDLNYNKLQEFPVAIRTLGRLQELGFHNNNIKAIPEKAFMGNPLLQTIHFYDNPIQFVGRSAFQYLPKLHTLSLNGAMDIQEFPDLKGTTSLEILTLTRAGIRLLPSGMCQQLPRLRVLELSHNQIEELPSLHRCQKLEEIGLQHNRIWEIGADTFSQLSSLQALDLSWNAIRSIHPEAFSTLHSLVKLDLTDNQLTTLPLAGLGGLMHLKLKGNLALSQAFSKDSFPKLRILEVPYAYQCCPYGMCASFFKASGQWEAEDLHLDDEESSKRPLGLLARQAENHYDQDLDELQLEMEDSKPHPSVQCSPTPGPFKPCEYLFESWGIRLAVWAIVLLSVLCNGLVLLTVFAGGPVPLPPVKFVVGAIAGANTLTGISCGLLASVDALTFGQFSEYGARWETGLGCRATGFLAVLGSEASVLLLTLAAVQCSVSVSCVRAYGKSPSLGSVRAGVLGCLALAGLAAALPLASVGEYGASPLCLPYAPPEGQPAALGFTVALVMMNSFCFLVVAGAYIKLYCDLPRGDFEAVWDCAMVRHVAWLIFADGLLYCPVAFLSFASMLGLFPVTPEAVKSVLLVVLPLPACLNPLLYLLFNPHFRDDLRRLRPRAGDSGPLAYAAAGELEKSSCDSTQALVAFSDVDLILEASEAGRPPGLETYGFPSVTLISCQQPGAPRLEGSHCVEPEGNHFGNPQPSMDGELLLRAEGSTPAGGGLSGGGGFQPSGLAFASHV


Assays:
[1] = target: T1, human LGR5-eGFP transgene; assay: western blot of lysates of HEK293T cells expressing mLGR5, hLGR5 or cynoLGR5 transgenes, probed with hybridoma clone 1
murine LGR5 transgene = target: T2, murine LGR5 transgene; assay: as above
human LGR6 transgene = target: T3, human LGR6 transgene; assay: indirect immunofluorescence on HEK293T cells expressing human and murine LGR family transgenes (FIG. 14B)

Binder | binding result [1] | binding result (murine LGR5 transgene) | binding result (human LGR6 transgene)
α-LGR5 clone 1 (antibody, mouse IgG1, kappa, V domains shown, Murine monoclonal antibody from hybridoma; also called hybridoma clone 1; antibody 1) VH: QVQLQQPGAELVKPGASVKLSCKASGYTFTSYWMQWVKQRPGQGLEWIGEIDPSDYYTNYNQKFKGKATLTVDTSSSTAYMQLSSLTSEDSAVYYCARSLSGYVDYWGQGTTLTVSS VL: DIQMTQSTSSLSASLGDRVTINCRASQDIRNRLNWYQQKPDGTVKLLISYRSRLQSGVPSRFSGSGSGTEYSLTISNLEQEDIATYFCQQGNTLPPTFGGGTKLEVRR | binds | no binding | 
α-LGR5 variant 4 (antibody, human IgG1, kappa, V domains shown, Humanized antibody; also called α-LGR5v4; clone 2.4) VH: QVQLVQSGAEVKKPGASVKVSCKASGYTFTNYWMQWVRQAPGQGLEWIGEIDPSDSYTNYNQKFQGRVTLTVDTSTSTAYMELSSLRSEDTAVYYCARSLSGYVDYWGQGTTVTVSS VL: EIVMTQSPATLSLSPGERATLSCRASQDISNRLNWYQQKPGQAVRLLISYRSRRHTGIPARFSGSGSGTDYTLTISSLEPEDFAVYYCQQGNSLPPTFGGGTKLEIKR |  |  | no binding
